Results: patent US20070066802A1

Columns and labels:
Assay in all cases: cell-based or functional assay
[1] = biological target: K^b-CD28[L→G]-ζ receptor (mouse) (UniProt P31041)
[2] = biological target: K^b-CD28[L→G]-ζ receptor pulsed with ovalbumin 257-264 peptide (SIINFEKL) (mouse) (UniProt P31041)
[3] = biological target: K^b-CD28-ζ receptor pulsed with ovalbumin 257-264 peptide (SIINFEKL) (mouse) (UniProt P31041)

## clone AF6-88.5 anti-mouse H-2K^b (antibody)
[1]
  IFN-γ release by RMTC: > 3.5 fold

## OT-1 TCR (rearranged ovalbumin 257-264/H-2K^b restricted TCR)
[2]
  in vivo depletion of Vα2+ OT-1 cells from the LN, peptide-pulsed against unpulsed RMTC: 98%
  in vivo depletion of Vα2+ OT-1 cells from the spleen, peptide-pulsed against unpulsed RMTC: 99%
  lysis of OT-1 target cells, peptide concentration for equivalent lysis against K^b-CD28-ζ RMTC (fold lower peptide concentration): 5 to 20
  specific lysis of OT-1 T cells, RMTC dose for equivalent lysis against K^b-CD28-ζ RMTC (fold fewer RMTC): 3 to 9
[3]
  in vivo depletion of Vα2+ OT-1 cells from the LN, peptide-pulsed against unpulsed RMTC: 93%
  in vivo depletion of Vα2+ OT-1 cells from the spleen, peptide-pulsed against unpulsed RMTC: 96%
